Results from patent US20230077531A1 (Sanofi, published 2023).
Substitutions are numbered along the chain they refer to. Names and notes keep the numbering of the source.

T1: human FcγRIIa H131 (human, UniProt P12318 34-317, limits assumed)
T1 construct: FACS implies display on cells, but the methods name no FcγRIIa cell line; also called huFcγRIIa H131
T1 sequence (looked up): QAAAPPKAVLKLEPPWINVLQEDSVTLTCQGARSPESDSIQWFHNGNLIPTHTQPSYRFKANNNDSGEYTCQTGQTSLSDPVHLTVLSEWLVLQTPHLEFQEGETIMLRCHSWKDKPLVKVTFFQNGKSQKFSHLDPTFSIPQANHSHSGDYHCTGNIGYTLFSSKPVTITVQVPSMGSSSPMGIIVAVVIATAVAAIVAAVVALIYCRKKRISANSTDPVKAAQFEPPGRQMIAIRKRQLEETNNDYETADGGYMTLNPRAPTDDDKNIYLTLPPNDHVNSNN

T2: human FcγRIIa R131 (human, UniProt P12318 34-317, limits assumed)
T2 construct: FACS implies display on cells, but the methods name no FcγRIIa cell line; also called huFcγRIIa R131
T2 sequence (looked up): T1 sequence (looked up) with H134R

B1: mAb1-ADLE (antibody)
chain 1: QVQLVQSGAEVKKPGASVKVSCKASGYSFTSYGISWVRQAPGQGLEWMGWISTYKGYTQYAQNFQGRVTITTDTPATTVYMELRSLRSDDTAVYYCARVLSETGYFYYYYYGMDVWGQGTLVTVSSASTKGPSVFPLAPSSKSTSGGTAALGCLVKDYFPEPVTVSWNSGALTSGVHTFPAVLQSSGLYSLSSVVTVPSSSLGTQTYICNVNHKPSNTKVDKKVEPKSCDKTHTCPPCPAPELLAGPDVFLFPPKPKDTLMISRTPEVTCVVVDVSHEDPEVKFNWYVDGVEVHNAKTKPREEQYNSTYRVVSVLTVLHQDWLNGKEYKCKVSNKALPLPEEKTISKAKGQPREPQVYTLPPSRDELTKNQVSLTCLVKGFYPSDIAVEWESNGQPENNYKTTPPVLDSDGSFFLYSKLTVDKSRWQQGNVFSCSVMHEALHNHYTQKSLSLSPG
chain 2: QAVVTQPPSVSGAPGQRVTISCTGSSSNIGADYNVHWYQLLPGTAPKLLIYGNTNRPSGVPDRFSGSKSGTSASLAITGLQAEDEADYYCQSYDSSLSASVFGGGTKLTVLGQPKAAPSVTLFPPSSEELQANKATLVCLISDFYPGAVTVAWKADSSPVKAGVETTTPSKQSNNKYAASSYLSLTPEQWKSHRSYSCQVTHEGSTVEKTVAPTECS
B2: mAb1-ADLE-R292C-V302C (antibody)
chain 1: B1 chain 1 with R301C, V311C
chain 2: B1 chain 2
B3: mAb1-ADE (antibody)
chain 1: B1 chain 1 with L339A
chain 2: B1 chain 2
B4: mAb1-DE (antibody)
chain 1: not shown
chain 2: B1 chain 2
B5: mAb1 (wt) (IgG1) (antibody)
chain 1: not shown
chain 2: B1 chain 2

Target: T3, FcγRIIIa F158 on HEK293T cells (human, UniProt P08637 17-254)
T3 construct: whole, on cells; also called HEK293T-FcγRIIIa F158
T3 sequence (P08637 17-254): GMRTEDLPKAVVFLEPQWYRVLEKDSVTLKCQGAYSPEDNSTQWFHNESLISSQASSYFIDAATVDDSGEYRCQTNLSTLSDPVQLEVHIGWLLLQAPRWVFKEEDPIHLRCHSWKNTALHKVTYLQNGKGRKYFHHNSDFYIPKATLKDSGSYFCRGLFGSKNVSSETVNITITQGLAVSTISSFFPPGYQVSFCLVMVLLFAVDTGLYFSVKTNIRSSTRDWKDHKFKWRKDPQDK
Assay: FACS on HEK293T-FcγRIIIa cells, assay 1 n=3

EC50 [nM]	Binder
4	B1
25	B2
9	B3
11	B4
1060	B5

Target: T4, FcγRIIIa V158 on HEK293T cells (human, UniProt P08637 17-254)
T4 construct: whole, on cells
T4 sequence (P08637 17-254 F176V): as the sequence (P08637 17-254) above, with F160V counted along it
Assay: FACS on HEK293T-FcγRIIIa cells, assay 1 n=3

EC50 [nM]	Binder
3	B1
12	B2
3	B3
2	B4
186	B5

Target: T4, FcγRIIIa V158 on HEK293T cells
Assay: FACS on HEK293T-FcγRIIIa cells, assay 1 n=3; bracketed value under the V158 cell

EC50 [nM]	Binder
2.71	B1

Target: T5, human FcRn (human, UniProt P55899 24-297)
T5 construct: also called huFcRn; recombinant human FcRn
T5 sequence (P55899 24-297): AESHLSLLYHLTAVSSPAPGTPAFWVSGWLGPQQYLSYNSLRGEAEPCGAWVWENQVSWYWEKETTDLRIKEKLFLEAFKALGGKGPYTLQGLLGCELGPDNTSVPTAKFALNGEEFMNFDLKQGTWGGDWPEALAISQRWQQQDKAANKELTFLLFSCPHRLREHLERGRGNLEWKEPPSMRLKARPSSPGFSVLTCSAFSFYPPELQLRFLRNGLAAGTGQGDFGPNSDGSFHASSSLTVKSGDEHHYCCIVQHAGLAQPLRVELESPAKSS
Assay: SPR pH 6.0, huFcRn captured, assay 1 n=3

Kd [nM]	Binder
993	B1
1130	B2
1040	B3
996	B4
1210	B5

Target: T3, FcγRIIIa F158 on HEK293T cells
Assay: FACS on HEK293T-FcγRIIIa cells, assay 1 n=3; cell shifted up, taken as F158

EC50 [nM]	Binder
1060	B5

Target: T6, huFcγRIIIa_V158 His protein (human, UniProt P08637 17-208)
T6 construct: also called His-tagged recombinant human FcγRIIIa-V158
T6 sequence (P08637 17-208 F176V limits assumed): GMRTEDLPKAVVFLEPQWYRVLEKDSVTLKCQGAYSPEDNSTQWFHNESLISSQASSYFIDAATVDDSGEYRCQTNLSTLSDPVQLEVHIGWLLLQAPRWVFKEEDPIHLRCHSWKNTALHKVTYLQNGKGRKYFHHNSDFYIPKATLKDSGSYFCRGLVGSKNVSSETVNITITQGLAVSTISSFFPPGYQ
Assay: SPR, His-receptor captured, assay 1 n=3

Kd [nM]	Binder
77	B1
258	B2
107	B3
57	B4
1620	B5

Target: T7, huFcγRIIIa_F158 His protein (human, UniProt P08637 17-208)
T7 sequence (P08637 17-208 limits assumed): as the sequence (P08637 17-208 F176V limits assumed) above, with V160F counted along it
Assay: SPR, His-receptor captured, assay 1 n=3

Kd [nM]	Binder
94	B1
296	B2
150	B3
141	B4
3870	B5

Target: T3, FcγRIIIa F158 on HEK293T cells
Assay: FACS on HEK293T-FcγRIIIa cells, assay 2 n=1

EC50 [nM]	Binder
7	B1
18	B4
744	B5

Target: T4, FcγRIIIa V158 on HEK293T cells
Assay: FACS on HEK293T-FcγRIIIa cells, assay 2 n=1

EC50 [nM]	Binder
5	B1
4	B4
244	B5

Target: T5, human FcRn
Assay: SPR pH 6.0, huFcRn captured, assay 2 n=3

Kd [nM]	Binder
811	B1
761	B4
941	B5

Target: T1, human FcγRIIa H131
Assay: FACS, assay 1 n=3

EC50 [nM]	Binder
70	B1
155	B2
20	B3
106	B4
341	B5

Target: T2, human FcγRIIa R131
Assay: FACS, assay 1 n=3

EC50 [nM]	Binder
85	B1
144	B2
20	B3
198	B4
303	B5

Target: T6, huFcγRIIIa_V158 His protein
Assay: SPR, His-receptor captured, assay 2 n=3

Kd [nM]	Binder
22	B1
17	B4
386	B5

Target: T7, huFcγRIIIa_F158 His protein
Assay: SPR, His-receptor captured, assay 2 n=3

Kd [nM]	Binder
46	B1
48	B4
1330	B5

Target: T3, FcγRIIIa F158 on HEK293T cells
Assay: FACS on HEK293T-FcγRIIIa cells, assay 1 n=3; bracketed value under the F158 cell

EC50 [nM]	Binder
4.37	B1
